From patent US20210403549A1 come the findings set out here.

In this test the target is low density lipoprotein (LDL) (UniProt P04114). The experiment in a line: bio-layer interferometry with LDL; beside the traces: clear dose-dependent binding. A general note: Biolayer interferometry detects binding as a change in optical thickness at a sensor tip.
Sequence of low density lipoprotein (LDL) (P04114 28-4563 limits assumed): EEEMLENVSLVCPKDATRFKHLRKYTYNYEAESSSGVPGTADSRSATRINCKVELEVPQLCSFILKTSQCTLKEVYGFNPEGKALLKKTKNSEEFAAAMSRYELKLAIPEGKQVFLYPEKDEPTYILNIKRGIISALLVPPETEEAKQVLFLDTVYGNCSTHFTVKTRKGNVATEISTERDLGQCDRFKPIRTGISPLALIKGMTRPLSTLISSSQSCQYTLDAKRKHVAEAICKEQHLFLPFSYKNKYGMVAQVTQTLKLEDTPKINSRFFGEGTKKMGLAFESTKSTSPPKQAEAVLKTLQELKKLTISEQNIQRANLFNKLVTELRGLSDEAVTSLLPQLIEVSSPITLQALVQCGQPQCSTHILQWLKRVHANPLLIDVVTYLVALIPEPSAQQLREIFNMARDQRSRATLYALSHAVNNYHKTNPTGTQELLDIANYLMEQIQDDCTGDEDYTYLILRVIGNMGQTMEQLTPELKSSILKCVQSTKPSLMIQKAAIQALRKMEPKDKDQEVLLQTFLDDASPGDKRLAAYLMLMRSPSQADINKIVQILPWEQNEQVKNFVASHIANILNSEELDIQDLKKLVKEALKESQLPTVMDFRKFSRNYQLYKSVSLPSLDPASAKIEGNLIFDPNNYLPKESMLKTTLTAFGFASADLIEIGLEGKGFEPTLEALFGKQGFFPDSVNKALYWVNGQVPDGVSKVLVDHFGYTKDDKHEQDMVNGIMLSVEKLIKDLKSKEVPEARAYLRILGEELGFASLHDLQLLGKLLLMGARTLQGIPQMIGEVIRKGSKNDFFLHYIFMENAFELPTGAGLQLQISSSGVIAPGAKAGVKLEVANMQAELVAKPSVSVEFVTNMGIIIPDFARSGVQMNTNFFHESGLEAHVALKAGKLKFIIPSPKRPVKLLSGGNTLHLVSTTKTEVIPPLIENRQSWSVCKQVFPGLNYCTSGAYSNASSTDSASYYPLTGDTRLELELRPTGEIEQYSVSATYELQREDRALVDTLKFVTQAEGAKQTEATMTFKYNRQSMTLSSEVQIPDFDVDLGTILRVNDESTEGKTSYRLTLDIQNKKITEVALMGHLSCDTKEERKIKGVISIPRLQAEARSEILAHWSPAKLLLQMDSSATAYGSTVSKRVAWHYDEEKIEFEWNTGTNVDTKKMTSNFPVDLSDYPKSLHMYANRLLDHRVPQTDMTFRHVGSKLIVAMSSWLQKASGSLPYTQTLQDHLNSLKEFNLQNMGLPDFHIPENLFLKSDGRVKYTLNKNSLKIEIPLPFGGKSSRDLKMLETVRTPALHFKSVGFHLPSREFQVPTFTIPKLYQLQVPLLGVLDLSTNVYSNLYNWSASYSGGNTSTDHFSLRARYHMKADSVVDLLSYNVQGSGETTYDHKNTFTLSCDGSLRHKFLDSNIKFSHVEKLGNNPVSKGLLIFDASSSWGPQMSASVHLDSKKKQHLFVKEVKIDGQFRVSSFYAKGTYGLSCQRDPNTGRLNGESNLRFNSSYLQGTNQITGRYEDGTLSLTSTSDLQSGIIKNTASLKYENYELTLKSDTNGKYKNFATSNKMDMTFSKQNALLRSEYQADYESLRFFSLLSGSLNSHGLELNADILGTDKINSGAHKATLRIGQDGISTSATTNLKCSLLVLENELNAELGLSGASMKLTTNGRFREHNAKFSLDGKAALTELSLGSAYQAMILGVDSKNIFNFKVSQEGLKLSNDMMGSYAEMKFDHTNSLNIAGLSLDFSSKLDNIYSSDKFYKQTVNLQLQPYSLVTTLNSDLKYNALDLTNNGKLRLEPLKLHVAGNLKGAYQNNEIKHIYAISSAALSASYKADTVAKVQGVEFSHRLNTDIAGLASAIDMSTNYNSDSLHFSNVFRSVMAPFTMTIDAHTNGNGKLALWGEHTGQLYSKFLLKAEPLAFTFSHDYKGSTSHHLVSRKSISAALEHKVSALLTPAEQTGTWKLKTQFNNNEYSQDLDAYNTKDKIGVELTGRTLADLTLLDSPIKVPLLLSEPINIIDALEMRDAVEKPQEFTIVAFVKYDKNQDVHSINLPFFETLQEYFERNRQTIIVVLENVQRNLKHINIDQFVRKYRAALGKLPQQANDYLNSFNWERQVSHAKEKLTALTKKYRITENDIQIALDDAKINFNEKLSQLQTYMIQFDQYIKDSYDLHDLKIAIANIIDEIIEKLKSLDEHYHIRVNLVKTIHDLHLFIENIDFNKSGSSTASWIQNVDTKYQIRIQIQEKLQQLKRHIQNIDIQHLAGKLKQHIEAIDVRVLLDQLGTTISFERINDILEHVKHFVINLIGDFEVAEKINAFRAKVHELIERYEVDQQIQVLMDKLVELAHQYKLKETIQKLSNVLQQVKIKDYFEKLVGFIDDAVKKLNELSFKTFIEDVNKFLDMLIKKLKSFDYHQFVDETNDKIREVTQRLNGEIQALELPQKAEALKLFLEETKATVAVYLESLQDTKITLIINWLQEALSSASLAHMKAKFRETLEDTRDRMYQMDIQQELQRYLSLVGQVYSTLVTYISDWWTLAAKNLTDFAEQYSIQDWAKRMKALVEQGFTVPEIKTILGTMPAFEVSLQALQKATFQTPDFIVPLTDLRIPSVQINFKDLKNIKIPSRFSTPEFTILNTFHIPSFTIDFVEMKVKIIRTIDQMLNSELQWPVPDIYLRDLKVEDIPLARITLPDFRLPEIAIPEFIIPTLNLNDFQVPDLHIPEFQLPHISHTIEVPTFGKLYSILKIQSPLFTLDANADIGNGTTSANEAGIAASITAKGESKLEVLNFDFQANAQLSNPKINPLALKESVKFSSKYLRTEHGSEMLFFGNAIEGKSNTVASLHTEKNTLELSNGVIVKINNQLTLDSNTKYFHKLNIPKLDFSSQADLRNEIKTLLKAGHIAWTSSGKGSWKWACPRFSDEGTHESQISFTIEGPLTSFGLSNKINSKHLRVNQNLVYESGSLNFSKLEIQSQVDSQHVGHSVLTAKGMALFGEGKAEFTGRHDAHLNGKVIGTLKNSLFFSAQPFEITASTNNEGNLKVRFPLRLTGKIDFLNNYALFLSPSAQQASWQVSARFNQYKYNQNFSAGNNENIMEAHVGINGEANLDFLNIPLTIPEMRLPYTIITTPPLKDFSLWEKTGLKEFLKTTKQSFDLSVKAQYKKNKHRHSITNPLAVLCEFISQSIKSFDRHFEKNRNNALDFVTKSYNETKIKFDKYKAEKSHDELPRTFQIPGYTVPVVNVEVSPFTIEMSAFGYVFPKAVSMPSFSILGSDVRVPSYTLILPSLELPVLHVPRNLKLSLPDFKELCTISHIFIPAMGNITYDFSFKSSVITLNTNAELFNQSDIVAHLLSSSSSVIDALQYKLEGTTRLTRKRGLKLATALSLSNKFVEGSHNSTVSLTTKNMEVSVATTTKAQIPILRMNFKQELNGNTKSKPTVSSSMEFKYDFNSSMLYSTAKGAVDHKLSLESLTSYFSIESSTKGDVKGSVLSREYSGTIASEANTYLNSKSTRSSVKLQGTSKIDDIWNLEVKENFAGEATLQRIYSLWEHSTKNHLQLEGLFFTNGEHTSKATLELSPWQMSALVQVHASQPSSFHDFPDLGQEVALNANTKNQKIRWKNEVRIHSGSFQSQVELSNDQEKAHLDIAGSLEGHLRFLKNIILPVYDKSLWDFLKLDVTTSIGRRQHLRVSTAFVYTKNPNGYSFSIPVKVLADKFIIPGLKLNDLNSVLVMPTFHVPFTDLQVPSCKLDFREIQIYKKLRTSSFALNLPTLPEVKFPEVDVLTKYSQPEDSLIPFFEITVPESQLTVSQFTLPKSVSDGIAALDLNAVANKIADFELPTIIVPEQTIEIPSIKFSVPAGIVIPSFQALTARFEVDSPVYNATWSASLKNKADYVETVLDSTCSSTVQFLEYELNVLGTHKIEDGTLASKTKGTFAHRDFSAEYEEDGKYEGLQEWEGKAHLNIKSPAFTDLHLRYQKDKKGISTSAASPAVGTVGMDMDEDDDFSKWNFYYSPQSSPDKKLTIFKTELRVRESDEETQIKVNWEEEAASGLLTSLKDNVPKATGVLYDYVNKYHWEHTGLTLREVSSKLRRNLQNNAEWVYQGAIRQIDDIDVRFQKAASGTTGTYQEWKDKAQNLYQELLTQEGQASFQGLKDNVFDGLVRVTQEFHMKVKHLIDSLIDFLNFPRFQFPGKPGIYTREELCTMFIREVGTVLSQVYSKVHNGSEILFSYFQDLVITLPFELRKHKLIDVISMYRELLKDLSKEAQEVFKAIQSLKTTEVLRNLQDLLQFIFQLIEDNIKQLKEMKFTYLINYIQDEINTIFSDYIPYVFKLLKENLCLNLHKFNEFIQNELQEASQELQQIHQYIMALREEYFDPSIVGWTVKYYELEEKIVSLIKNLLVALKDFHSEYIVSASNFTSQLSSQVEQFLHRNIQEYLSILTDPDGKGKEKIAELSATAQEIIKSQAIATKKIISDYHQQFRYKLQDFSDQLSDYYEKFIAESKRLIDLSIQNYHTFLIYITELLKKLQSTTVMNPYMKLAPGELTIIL

As a reminder, the Kd is the constant that tells how readily two partners part at equilibrium. Consider ALK1-E75A-hsIgG-Fc (Fc fusion), for which the Kd was found to be 525 nM.
